In patent US20190038762A1 (Takeda / Millennium, published 2019):

Target: T1, guanylyl cyclase C (GCC), myc-tagged, full-length, expressed on HEK293-GCC#2 cells (UniProt P25092 24-1073, limits assumed)
T1 construct: whole, on cells; also called GCC antigen; GCC-expressing cells
Test: indirect immunofluorescence flow cytometry on HEK293-GCC#2 cells
Protocol: HEK293-GCC#2 and vector control cells were grown in standard cell culture medium supplemented with 10% fetal bovine serum (FBS). […] This centrifugation-wash step was repeated once more before cells were re-suspended at a concentration of 5×10⁶ cells/mL in 3% FBS/PBS, and added to the experimental wells of a V-bottom 96-well plate in 100 μL aliquots (˜500,000 cells). The plate was centrifuged for 5 min at 1200 rpm.
Following centrifugation, supernatant was removed from each well and replaced with 50 μL of primary antibody-drug conjugate solution. […] The 96-well dish was covered and incubated at 4° C. (on ice) for 1 hour before solutions were removed from the wells and the cells were washed twice in 100 μL of 3% FBS/PBS (without Ca²⁺ or Mg²⁺).
After completion of the second wash, 50 μL of secondary antibody solution was added to each experimental well, and the covered 96-well plate was placed at 4° C. (on ice) for 1 hour. The plate was then centrifuged, and the supernatant was replaced with 100 μL of 3% FBS/PBS (without Ca²⁺ or Mg²⁺). This centrifugation-wash step was repeated for a total of two cycles. The cells were finally reconstituted in 200 μL of PBS (without Ca²⁺ or Mg²⁺) and loaded onto the BD FACS Canto flow cytometer (BD Biosciences, Franklin Lakes, N.J.). Data were analyzed using FACS II Canto system software and the appropriate filter settings.

T1 sequence (P25092 24-1073 limits assumed): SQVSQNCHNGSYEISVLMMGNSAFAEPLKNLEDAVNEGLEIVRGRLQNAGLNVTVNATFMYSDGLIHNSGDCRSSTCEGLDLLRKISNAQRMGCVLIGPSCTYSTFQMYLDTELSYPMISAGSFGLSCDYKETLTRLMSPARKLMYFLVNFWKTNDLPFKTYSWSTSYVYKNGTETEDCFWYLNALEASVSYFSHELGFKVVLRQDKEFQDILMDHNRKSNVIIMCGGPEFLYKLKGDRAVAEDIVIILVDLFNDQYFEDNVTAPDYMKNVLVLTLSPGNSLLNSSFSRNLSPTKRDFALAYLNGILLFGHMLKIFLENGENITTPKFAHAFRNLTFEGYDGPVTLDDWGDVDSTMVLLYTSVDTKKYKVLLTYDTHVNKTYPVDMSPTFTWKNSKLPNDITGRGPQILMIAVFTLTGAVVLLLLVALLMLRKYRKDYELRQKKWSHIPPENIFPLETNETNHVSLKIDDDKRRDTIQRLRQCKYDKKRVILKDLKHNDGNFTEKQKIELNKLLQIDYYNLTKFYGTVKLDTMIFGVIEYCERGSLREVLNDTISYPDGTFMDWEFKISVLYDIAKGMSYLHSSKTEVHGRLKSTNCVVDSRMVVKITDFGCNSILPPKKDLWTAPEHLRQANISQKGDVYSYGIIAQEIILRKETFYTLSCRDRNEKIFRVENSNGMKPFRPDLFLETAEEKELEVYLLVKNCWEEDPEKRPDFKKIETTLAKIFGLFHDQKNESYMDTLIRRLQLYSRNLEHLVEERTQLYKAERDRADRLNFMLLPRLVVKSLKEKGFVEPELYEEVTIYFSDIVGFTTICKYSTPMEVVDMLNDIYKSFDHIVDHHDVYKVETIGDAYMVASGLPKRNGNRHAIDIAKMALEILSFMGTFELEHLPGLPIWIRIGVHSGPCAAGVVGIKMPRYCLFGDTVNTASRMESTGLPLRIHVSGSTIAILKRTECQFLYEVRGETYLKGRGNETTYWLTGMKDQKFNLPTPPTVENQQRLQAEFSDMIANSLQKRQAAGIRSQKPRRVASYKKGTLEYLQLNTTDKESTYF

B1: 5F9 antibody (anti-GCC human monoclonal antibody 5F9, hIgG1/hKappa) (antibody, V domains shown)
VH: QVQLQQWGAGLLKPSETLSLTCAVFGGSFSGYYWSWIRQPPGKGLEWIGEINHRGNTNDNPSLKSRVTISVDTSKNQFALKLSSVTAADTAVYYCARERGYTYGNFDHWGQGTLVTVSS
VL: EIVMTQSPATLSVSPGERATLSCRASQSVSRNLAWYQQKPGQAPRLLIYGASTRATGIPARFSGSGSGTEFTLTIGSLQSEDFAVYYCQQYKTWPRTFGQGTNVEIKR
notes: The hybridoma antibody was IgG2, kappa; also called hu5F9; Human 5F9 antibody
Affinity: 35 ng/mL
